According to the supplement of paper PMC9732359:
± gives the uncertainty stated by the source.

test: protein stability index of a GFP-peptide fusion (yeast GPS) (PSI 1-4); higher = more stable; sorted into four equal gates, so the index is relative within each strain; details: ubr1∆
Method in brief: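 Yeast carrying a pooled library were grown to mid-log phase in leucine-free medium. Each library plasmid expresses Cherry and has a tiled 17-residue yeast protein peptide fused downstream of GFP. Cells were sorted into four equal gates by GFP/Cherry ratio, and plasmids from each gate were PCR-amplified, Illumina-sequenced and assigned to strains by barcode. Summing, across gates, the read frequency times the gate number gave each peptide's protein stability index.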

Point of comparison: PEFAGYSKAAEPHAVSL [ASC1], protein stability index 2.21 ± 0.047. Against it:
- NTSAIQETASPLSQDEL [YIL149C/MLP2] — lower, 1.25 ± 0.077
- NTSIAQFDIQSPLYMDT [YML103C/NUP188] — higher, 3.01 ± 0.058
- NTSLNINGWKFESLPLK [SWP82] — higher, 3.06 ± 0.043
- NTSSLQSFQNPFTASQS [YIL149C/MLP2] — higher, 2.36 ± 0.034
- NVASLVRVQFQFTGFLL [GRR1] — lower, 1.55 ± 0.058
- NVDYYNVAHRIKEDIKK [SNF2] — higher, 3.02 ± 0.046
- NVEEEQIVPYIEKLTDG [BRR2] — higher, 3.2 ± 0.061
- NVEMEEDVLVNQILMSV [RPL1A] — higher, 2.92 ± 0.083
- NVETYEQILQWVTEVLG [BRR2] — lower, 2 ± 0.082
- NVGLCITIYDLLTVEEG [RPC25] — lower, 1.57 ± 0.076
- NVIITGSTSLIEGMEQR [ARP7] — within error, 2.13 ± 0.077
- NVKVIMATNRADTLDPA [RPT3] — higher, 2.44 ± 0.057
- NVLFLRLFNNVKIHSQE [SRP72] — lower, 2.08 ± 0.036
- NVTLVNGKRRMNPGPSV [RPS30A] — higher, 2.65 ± 0.039
- NVVNYLSINKNFINQED [RPC17] — lower, 1.61 ± 0.045
- NWRLVEVGRVVLIKKGQ [RPL14A] — within error, 2.19 ± 0.19
- NYGSSLQWHAMIELICS [AAR2] — lower, 1.34 ± 0.15
- NYNHLLPTRYTLDVEAF [RPL27A] — lower, 1.52 ± 0.032
- NYPQDEINAVFNELCDP [POP1] — higher, 3.07 ± 0.056
- NYPQLTEDILKEISTRV [YCS4] — higher, 3.41 ± 0.13
- NYTDLIWFPEDFISPEL [MED1] — higher, 2.56 ± 0.032
- PAELDLRGSLLSRKPSD [RPC82] — higher, 3.19 ± 0.078
- PAFKPTEKKFTKEQYAA [RPL5] — higher, 3.04 ± 0.1
- PAKSASARGSYLRVSFK [RPL17A] — higher, 3.14 ± 0.041
- PDFEKLLPFVKGNVGFV [RPP0] — lower, 1.89 ± 0.19
- PDILATDLIREKTMMTF [YCS4] — higher, 2.62 ± 0.056
- PDLDTECFISMQSTSPA [SWI1] — higher, 2.93 ± 0.07
- PDMYERKVENIRTILVN [MED7] — lower, 1.36 ± 0.036
- PDNSIFGDTKSESKQLG [SWI3] — higher, 3.37 ± 0.052
- PDPRSTVIPEDEEIIQL [RPO21] — higher, 2.66 ± 0.063
- PDYYVSILSFVDKELLE [RPT2] — higher, 2.59 ± 0.046
- PEETPLEELAETFQDTF [FAS2] — higher, 3.32 ± 0.059
- PEGRLYQVEYAFKATNQ [SCL1] — higher, 2.32 ± 0.062
- PEKEASSATIVLCLTRS [YCG1] — within error, 2.24 ± 0.046
- PETCLFVSYFGKQIKST [YML103C/NUP188] — higher, 2.64 ± 0.037
- PFMLQWGIPLIKELRSK [FAS1] — lower, 1.58 ± 0.049
- PFTDRSVVRGNTFKVLS [COB] — within error, 2.37 ± 0.12
- PGFDEFQLIDMKDKEIN [CSI1] — higher, 3.45 ± 0.061
- PGNGKHASENISLSFSR [SIR4] — higher, 3.05 ± 0.058
- PGPRLLYENIASSPIIL [RPN10] — lower, 2.12 ± 0.028
- PGRLDRKIEFPSLRDRR [RPT3] — higher, 3.23 ± 0.039
- PGTITHGMFSSASVRAL [FAS1] — higher, 2.52 ± 0.037
- PGTNGKVKKPLKYLSVE [PRE7] — higher, 3.24 ± 0.12
- PGTTSTGNNNNIATQQN [GAL11] — higher, 2.73 ± 0.056
- PHELTESVLPAARYDYA [QCR2] — lower, 1.92 ± 0.044
- PHHNQSPRNTYQCAMGK [RET1] — higher, 2.89 ± 0.24
- PHLFVNGDLTVSLCAKN [SSN2] — lower, 1.87 ± 0.074
- PHQSPDATRVFVNGVWH [RPB2] — higher, 3.15 ± 0.045
- PHTPVTRKGYIPSSKYA [YLR018C/POM34] — higher, 3.07 ± 0.052
- PIAASTDLPIETAAMAS [RPN1] — lower, 1.71 ± 0.058
- PIDAGLNEAPFPEENII [MCD1] — higher, 2.96 ± 0.041
- PIDNNIIFASTKLGFTF [SNU114] — higher, 2.67 ± 0.035
- PIFSFGKQEENGDEGDD [YOR098C/NUP1] — higher, 3.32 ± 0.14
- PIIATYGNRAEQFLETD [SRP68] — higher, 2.72 ± 0.084
- PINLQNGEEDEVALFSQ [YLR335W/NUP2] — higher, 3.17 ± 0.18
- PIPIPAFADRLGQYVQA [PRE10] — within error, 2.07 ± 0.097
- PIPSSETKADGILLETI [RRP6] — higher, 2.53 ± 0.052
- PISKHSKQAIYTRAAAS [RPS25B] — higher, 2.83 ± 0.051
- PIVIIFRALGIIPDGEI [RPB2] — higher, 2.41 ± 0.039
- PKAMTDTDNECVAAWGV [HRT1] — higher, 3.05 ± 0.042
- PKSSPLKKNNYNSFPHS [SIR4] — higher, 3.06 ± 0.039
- PKYAKQKDKSDTYKRFK [ISW2] — higher, 3.23 ± 0.079
- PKYRDNLATWYHSAGGR [SSN3] — higher, 2.99 ± 0.059
- PLASEESLTNSNMFDNS [YGL100W/SEH1] — higher, 3.29 ± 0.086
- PLIQNSMRTIMKANPAL [PRP8] — within error, 2.25 ± 0.17
- PLKYAPHLPFSKSENPV [SWI3] — higher, 2.93 ± 0.074
- PLNVLQDQYKEGIKVVD [SNF2] — higher, 2.62 ± 0.093
- PLPHRVQKSTKTFSYKR [RPL20A] — higher, 2.38 ± 0.043
- PLPVETPRDRRKSVFAP [SSN2] — higher, 2.86 ± 0.049
- PLQNNLPELWALLNFVL [SNF2] — higher, 2.46 ± 0.037
- PLQVARCTKIIKGNGES [RPT1] — lower, 2.01 ± 0.14
- PLRLRLYDNFVSKFYDK [RPN9] — higher, 2.96 ± 0.079
- PLSNEVFEISENNSDSN [SWI1] — higher, 2.98 ± 0.058
- PMPIITFLSEWGMEPLE [RPB2] — higher, 2.76 ± 0.071
- PNADDIRDSIPQMDSFD [DIS3] — higher, 3.06 ± 0.052
- PNGTKKAYVRLTADYDA [RPL25] — higher, 3.34 ± 0.15
- PNHIPSVNPSNKPIKRM [SWP82] — higher, 3.02 ± 0.042
- PNIRELGVKNLGLCCLL [YCG1] — lower, 1.46 ± 0.061
- PNIRTMSGTTKRLNGKR [SSN2] — higher, 3.46 ± 0.11
- PNLLFSMCGFEVRILPR [PRP8] — within error, 2.27 ± 0.046
- PNVFDKDSYVRIANIEQ [YDL088C/ASM4] — higher, 3.22 ± 0.051
- PPETKLPYPTYWSDKKA [SNF5] — higher, 2.86 ± 0.053
- PPKHTELLLTTLSVSHG [SSN2] — lower, 1.61 ± 0.027
- PPPGLDELETKAEKKVE [PRP8] — higher, 3.08 ± 0.049
- PPQLANQQQPPQDILSK [SNF11] — higher, 2.69 ± 0.052
- PPSVTLQDWQREDEFGS [YDL088C/ASM4] — higher, 3.24 ± 0.054
- PQAILAKNSIIDSSNLP [SWI1] — higher, 2.36 ± 0.04
- PQGRQSTTFADCPVVPA [RPC40] — higher, 2.87 ± 0.059
- PQGSTTNGGLFGSGTQN [YGR119C/NUP57] — higher, 3.015 ± 0.029
- PQRLQRKRHQRALKVRN [RPS6A] — higher, 2.87 ± 0.046
- PRFNRENKVSPADAAKK [RPS26A] — higher, 2.89 ± 0.12
- PRGTAKLIIHRKNDNAN [SMC3] — lower, 1.95 ± 0.087
- PRSPGRSPTRRLELLQL [SMC4] — lower, 1.7 ± 0.13
- PRVIEPVYTAQWSATWI [PRP8] — within error, 2.13 ± 0.046
- PSENLLNIRIQTYGETT [RPC19] — lower, 1.33 ± 0.26
- PSGAKKVISSDARGVIG [RPL2A] — higher, 3.04 ± 0.077
- PSILEDSLENNEGVPSP [FAS1] — higher, 3.14 ± 0.2
- PSIVFIDEIDAIGTKRY [RPT2] — higher, 2.92 ± 0.19
- PSLRKLIESGIGTHHAG [BRR2] — higher, 3.64 ± 0.13
